Results published in patent US20220177590A1 (REMEGEN, published 2022).

Tests used:
[1] = target: T1, human PD-L1 (R&D company), immobilized on Ni-NTA probe (human, UniProt Q9NZQ7 19-239); test: BLI, PD-L1 immobilized on Ni-NTA probe, hAAG5D8 at 100, 50 and 25 nM in solution
T1 construct: Bought protein; also called PD-L1 solution; not shown: His tag only implied by capture on the Ni-NTA probe
Method: The affinity of hAAG5D8 to human PD-L1 was detected using biolayer interferometry (BLI). The wells in A-D columns 1, 3, and 5 of a black 96-well plate were added with a PBS solution as baseline 1, baseline 2 and a dissociation solution, respectively. The wells in column 2 were added with a PD-L1 solution (R&D company), in column 4 with a hAAG5D8 solution (The concentrations were as follows: 100 nM, 50 nM, 25 nM, and 0 nM), in column 10 with an imidazole solution, in column 11 with water, and in column 12 with a nickel sulfate solution. Ni-NTA probe (Fortebio) was employed in the experiment. First, the probe was dipped in A-D column 1 for 180 seconds to stabilize the baseline. The Ni-NTA probe was then dipped in A-D column 2 for 300 seconds to immobilize PD-L1 on the probe. The Ni-NTA probe was then dipped in A-D column 3 for 120 seconds to stabilize the baseline. The Ni-NTA probe was then dipped in A-D column 4 for 600 seconds to allow the binding of hAAG5D8 with a different concentration to the immobilized PD-L1 protein on the probe. The Ni-NTA probe was then dipped in A-D column 5 for 600 seconds to allow the antibody to dissociate spontaneously. Finally, the Ni-NTA probe was dipped in A-D columns 10, 11, and 12 successively to force the immobilized PD-L1 dissociating from the probe. […]

PD-L1 (Fc Tag) [2] = target: T2, PD-L1 (Fc Tag) (human, UniProt Q9NZQ7 19-239, limits assumed); test: competition ELISA, PD-L1 (Fc Tag) coated, human PD-1 at 6 ug/mL as competitor, anti-human IgG-Fc-HRP detection
T2 construct: also called human PD-L1; not shown: Fc tag
Method: (§1) The ability of hAAG5D8 to compete with PD-1 to bind to PD-L1 was tested by ELISA. PD-L1 (Fc Tag) was diluted to 1 μg/mL with a coating buffer (6 mM Na₂CO₃, 14 mM NaHCO₃), and then added 100 μL to each well followed by overnight incubation at 4° C. The plate was then washed with PBST, and added with 250 μL of a blocking solution (3% BSA/PBST) to each well to block for 2 h at 25° C. Afterwards, the plate was washed with PBST and added with 50 μL of human PD-1 at a concentration of 6 μg/mL as well as 50 μL of a gradiently diluted hAAG5D8 solution (at a concentration of 8000 ng/mL, 2000 ng/mL, 500 ng/mL, 250 ng/mL, 125 ng/mL, 62.5 ng/mL, 31.25 ng/mL, 6.25 ng/mL, or 1.25 ng/mL) to each well followed by mixing well and incubation at 25° C. for 2 h. Next, the plate was washed with PBST and added with 100 μL of an enzyme-labeled secondary antibody (goat anti-human IgG-Fc-HRP diluted 1:5000) to each well, followed by incubation at 25° C. for 1 h. Finally, color development was performed and values were read at 450 nm. A four-parameter equation was used for curve fitting to calculate the EC₅₀ value.
(§2) Results and conclusions: EC₅₀ value and the competitive binding curve of hAAG5D8 competitively binding to human PD-L1 are shown in Table 8 and FIG. 2, respectively.

PD-L1 (Fc Tag) [3] = target: T2, PD-L1 (Fc Tag); test: competition ELISA, PD-L1 (Fc Tag) coated, human PD-1 at a fixed concentration as the competing ligand, hAAG5D8 titrated
Method: as §1, §2

T2 sequence (Q9NZQ7 19-239 limits assumed): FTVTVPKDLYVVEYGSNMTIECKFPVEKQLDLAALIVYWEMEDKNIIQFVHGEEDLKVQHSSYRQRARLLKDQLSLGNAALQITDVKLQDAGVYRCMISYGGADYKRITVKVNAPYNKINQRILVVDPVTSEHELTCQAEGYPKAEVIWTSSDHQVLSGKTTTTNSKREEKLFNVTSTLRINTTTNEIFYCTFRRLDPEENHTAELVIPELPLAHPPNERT
T1 sequence (Q9NZQ7 19-239): as the sequence (Q9NZQ7 19-239 limits assumed) above

Kd [1]: 0.0762 nM | EC50 (PD-L1 (Fc Tag) [2]): 0.716 nM | IC50 (read off the curve) (PD-L1 (Fc Tag) [3]): ~100 ng/mL
B1: anti-PD-L1 humanized antibody hAAG5D8 (antibody, human IgG1, kappa, V domains shown)
VH: QVQLQESGPGLVKPSETLSLTCTVSGFSLSRYSVHWIRQPPGKGLEWLGMIWGVGTTDYNSALKSRLTISKDTSKNQFSLKLSSVTAADTAVYYCARNWGTADYFDYWGQGTTVTVSS
VL: DIVLTQSPASLAVSPGQRATITCRASKSVHTSGYSYMHWYQQKPGQPPKLLIYLASNLESGVPARFSGSGSGTDFTLTINPVEANDTANYYCQHSGELPYTFGGGTKVEIKR
notes: Humanized from murine mAAG5D8 on a human IgG1 framework; also called anti-PD-L1 antibody
